{"source": "paper PMC6454061", "key": {"[1]": {"molecular_target": "ST6Gal-I cysteine mutant C24S (UniProt P15907)", "assay": "FRET in cells (homomer assembly)", "details": "n = 3, 15,000 cells each; parent: est. 100; read off a plot"}, "[2]": {"molecular_target": "β1,4-galactosyltransferase B4GalT-I (UniProt P15291)", "assay": "FRET in cells (heteromer assembly)", "details": "n = 3, 15,000 cells each; parent: est. 100; read off a plot"}, "[3]": {"molecular_target": "T1, ST6Gal-I cysteine mutant C406A, P15907", "T1 chain": "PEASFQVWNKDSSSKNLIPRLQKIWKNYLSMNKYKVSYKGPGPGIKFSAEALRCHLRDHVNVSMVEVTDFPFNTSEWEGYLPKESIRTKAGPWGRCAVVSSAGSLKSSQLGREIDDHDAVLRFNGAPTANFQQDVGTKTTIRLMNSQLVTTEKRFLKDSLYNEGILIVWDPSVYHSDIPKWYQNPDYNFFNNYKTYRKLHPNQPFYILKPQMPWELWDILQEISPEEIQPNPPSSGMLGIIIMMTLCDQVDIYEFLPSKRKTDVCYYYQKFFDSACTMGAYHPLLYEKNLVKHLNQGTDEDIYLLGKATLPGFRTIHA", "assay": "FRET in cells (homomer assembly)", "details": "chain shown with the change; n = 3, 15,000 cells each; parent: est. 100; read off a plot"}, "[4]": {"molecular_target": "T2, β1,4-galactosyltransferase B4GalT-I, P15291", "T2 chain": "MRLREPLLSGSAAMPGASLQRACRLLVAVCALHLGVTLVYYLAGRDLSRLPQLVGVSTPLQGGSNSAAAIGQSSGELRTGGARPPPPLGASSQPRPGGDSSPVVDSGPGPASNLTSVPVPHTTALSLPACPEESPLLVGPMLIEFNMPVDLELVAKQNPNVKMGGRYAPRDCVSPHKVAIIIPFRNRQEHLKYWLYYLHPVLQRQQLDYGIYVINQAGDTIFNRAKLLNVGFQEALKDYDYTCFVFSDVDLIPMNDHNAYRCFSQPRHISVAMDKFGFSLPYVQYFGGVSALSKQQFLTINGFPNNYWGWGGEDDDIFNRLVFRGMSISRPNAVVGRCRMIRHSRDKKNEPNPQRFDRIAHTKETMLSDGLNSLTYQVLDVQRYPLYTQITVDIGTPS", "assay": "FRET in cells (heteromer assembly)", "details": "chain shown with the change; n = 3, 15,000 cells each; parent: est. 100; read off a plot"}, "[5]": {"molecular_target": "T3, ST6Gal-I cysteine mutant C353A, P15907", "T3 chain": "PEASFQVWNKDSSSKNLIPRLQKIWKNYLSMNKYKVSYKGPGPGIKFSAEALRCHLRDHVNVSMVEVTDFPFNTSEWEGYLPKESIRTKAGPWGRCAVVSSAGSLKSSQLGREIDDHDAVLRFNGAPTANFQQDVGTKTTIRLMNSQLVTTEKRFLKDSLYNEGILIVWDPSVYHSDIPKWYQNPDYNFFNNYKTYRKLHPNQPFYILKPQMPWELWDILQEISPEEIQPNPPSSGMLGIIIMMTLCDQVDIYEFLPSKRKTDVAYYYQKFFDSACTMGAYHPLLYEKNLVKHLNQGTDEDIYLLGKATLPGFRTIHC", "assay": "FRET in cells (homomer assembly)", "details": "chain shown with the change; n = 3, 15,000 cells each; parent: est. 100; read off a plot"}}}
{"molecule": "α-2,6-sialyltransferase ST6Gal-I, wild type (from UniProt P15907) C24S", "values": [{"measurement": "percent of parent (% of WT control)", "setting": "[1]", "result": 70}, {"measurement": "percent of parent (% of WT control)", "setting": "[2]", "result": 97}]}
{"molecule": "α-2,6-sialyltransferase ST6Gal-I, wild type, P15907 C406A (protein) PEASFQVWNKDSSSKNLIPRLQKIWKNYLSMNKYKVSYKGPGPGIKFSAEALRCHLRDHVNVSMVEVTDFPFNTSEWEGYLPKESIRTKAGPWGRCAVVSSAGSLKSSQLGREIDDHDAVLRFNGAPTANFQQDVGTKTTIRLMNSQLVTTEKRFLKDSLYNEGILIVWDPSVYHSDIPKWYQNPDYNFFNNYKTYRKLHPNQPFYILKPQMPWELWDILQEISPEEIQPNPPSSGMLGIIIMMTLCDQVDIYEFLPSKRKTDVCYYYQKFFDSACTMGAYHPLLYEKNLVKHLNQGTDEDIYLLGKATLPGFRTIHA", "values": [{"measurement": "percent of parent (% of WT control)", "setting": "[3]", "result": 60}, {"measurement": "percent of parent (% of WT control)", "setting": "[4]", "result": 84}]}
{"molecule": "α-2,6-sialyltransferase ST6Gal-I, wild type, P15907 C353A (protein) PEASFQVWNKDSSSKNLIPRLQKIWKNYLSMNKYKVSYKGPGPGIKFSAEALRCHLRDHVNVSMVEVTDFPFNTSEWEGYLPKESIRTKAGPWGRCAVVSSAGSLKSSQLGREIDDHDAVLRFNGAPTANFQQDVGTKTTIRLMNSQLVTTEKRFLKDSLYNEGILIVWDPSVYHSDIPKWYQNPDYNFFNNYKTYRKLHPNQPFYILKPQMPWELWDILQEISPEEIQPNPPSSGMLGIIIMMTLCDQVDIYEFLPSKRKTDVAYYYQKFFDSACTMGAYHPLLYEKNLVKHLNQGTDEDIYLLGKATLPGFRTIHC", "values": [{"measurement": "percent of parent (% of WT control)", "setting": "[5]", "result": 83}]}
